Reference: PMC10404625 (The Journal of Biological Chemistry, 2023)
Ends that are not written are not given here.

T1: Rpc53/37 dimerization module (Rpc53 (274–422)/Rpc37 (71–181)) (S. cerevisiae, UniProt P25441 274-422; P36121 71-181)
T1 sequence (looked up) 1: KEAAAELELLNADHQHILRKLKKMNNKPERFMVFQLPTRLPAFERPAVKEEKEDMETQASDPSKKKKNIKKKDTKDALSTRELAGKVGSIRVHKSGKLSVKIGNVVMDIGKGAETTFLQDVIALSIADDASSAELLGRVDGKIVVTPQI
T1 sequence (looked up) 2: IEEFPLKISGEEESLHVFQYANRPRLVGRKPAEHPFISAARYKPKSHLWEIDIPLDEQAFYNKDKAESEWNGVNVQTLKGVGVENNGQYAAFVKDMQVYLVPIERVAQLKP

T2: full-length Rpc37 (S. cerevisiae, UniProt P36121 1-282)
T2 sequence (looked up): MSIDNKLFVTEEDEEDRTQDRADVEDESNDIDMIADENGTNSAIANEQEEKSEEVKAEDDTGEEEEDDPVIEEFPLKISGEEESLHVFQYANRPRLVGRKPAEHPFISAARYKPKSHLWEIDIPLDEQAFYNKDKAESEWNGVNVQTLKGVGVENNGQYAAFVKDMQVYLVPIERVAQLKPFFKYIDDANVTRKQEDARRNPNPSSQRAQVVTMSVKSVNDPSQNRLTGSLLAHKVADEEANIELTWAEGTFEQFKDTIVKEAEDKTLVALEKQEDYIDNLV

T3: Rpc25/17 heterodimer (S. cerevisiae, UniProt P35718 1-212; P47076 1-161)
T3 sequence (looked up) 1: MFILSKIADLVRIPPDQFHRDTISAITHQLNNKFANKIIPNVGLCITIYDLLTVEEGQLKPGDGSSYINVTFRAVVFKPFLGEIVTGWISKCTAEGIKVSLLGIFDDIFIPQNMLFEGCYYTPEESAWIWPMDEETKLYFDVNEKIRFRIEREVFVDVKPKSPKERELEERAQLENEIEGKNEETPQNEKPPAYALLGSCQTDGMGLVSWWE
T3 sequence (looked up) 2: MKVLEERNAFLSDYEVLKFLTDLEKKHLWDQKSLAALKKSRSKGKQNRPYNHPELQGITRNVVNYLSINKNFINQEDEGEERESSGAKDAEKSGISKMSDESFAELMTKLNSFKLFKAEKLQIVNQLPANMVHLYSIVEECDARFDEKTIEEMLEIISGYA

T4: Tfc4 N-ter (1–580) (S. cerevisiae, UniProt P33339 1-580)
T4 sequence (looked up): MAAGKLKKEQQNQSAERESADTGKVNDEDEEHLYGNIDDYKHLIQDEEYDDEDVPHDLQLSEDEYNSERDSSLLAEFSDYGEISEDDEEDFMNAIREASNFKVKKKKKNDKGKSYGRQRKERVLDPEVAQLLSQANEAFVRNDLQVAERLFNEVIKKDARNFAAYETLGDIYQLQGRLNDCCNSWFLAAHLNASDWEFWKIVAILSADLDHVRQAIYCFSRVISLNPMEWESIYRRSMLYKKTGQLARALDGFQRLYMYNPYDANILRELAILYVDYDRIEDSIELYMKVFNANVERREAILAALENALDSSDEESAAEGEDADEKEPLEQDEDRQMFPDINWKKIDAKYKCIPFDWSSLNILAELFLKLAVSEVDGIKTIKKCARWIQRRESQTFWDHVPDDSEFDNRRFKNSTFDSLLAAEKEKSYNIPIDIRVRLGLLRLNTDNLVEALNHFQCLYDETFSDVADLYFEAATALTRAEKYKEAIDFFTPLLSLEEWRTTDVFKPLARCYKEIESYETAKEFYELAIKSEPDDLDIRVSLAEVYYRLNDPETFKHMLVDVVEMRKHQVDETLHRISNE


Key:
Assay in all cases: MST
[1] = target: T1, Rpc53/37 dimerization module (Rpc53 …)
full-length Rpc37 = target: T2, full-length Rpc37
Rpc25/17 heterodimer = target: T3, Rpc25/17 heterodimer
Tfc4 N-ter (1–580) = target: T4, Tfc4 N-ter (1–580)
[2] = target: three Rpc53 N-ter mutant peptides

Kd [1]	Kd (full-length Rpc37)	Kd (Rpc25/17 heterodimer)	Kd (Tfc4 N-ter (1–580))	Kd [2]	Binder
1620 ± 650 nM	8.2 ± 1.7 nM	230 ± 170 nM	5.6 ± 1.7 nM	–	Rpc53 N-ter (1–57) fragment (domain or fragment, S. cerevisiae, UniProt P25441 1-57, looked up, also: Alexa Fluor 647 via NHS ester, position not given here) MSSNKGNGRLPSLKDSSSNGGGSAKPSLKFKPKAVARKSKEEREAAASKVKLEEESK
–	–	–	–	40 to 100 nM	Tfc4 N-ter (1–580) (domain or fragment) MAAGKLKKEQQNQSAERESADTGKVNDEDEEHLYGNIDDYKHLIQDEEYDDEDVPHDLQLSEDEYNSERDSSLLAEFSDYGEISEDDEEDFMNAIREASNFKVKKKKKNDKGKSYGRQRKERVLDPEVAQLLSQANEAFVRNDLQVAERLFNEVIKKDARNFAAYETLGDIYQLQGRLNDCCNSWFLAAHLNASDWEFWKIVAILSADLDHVRQAIYCFSRVISLNPMEWESIYRRSMLYKKTGQLARALDGFQRLYMYNPYDANILRELAILYVDYDRIEDSIELYMKVFNANVERREAILAALENALDSSDEESAAEGEDADEKEPLEQDEDRQMFPDINWKKIDAKYKCIPFDWSSLNILAELFLKLAVSEVDGIKTIKKCARWIQRRESQTFWDHVPDDSEFDNRRFKNSTFDSLLAAEKEKSYNIPIDIRVRLGLLRLNTDNLVEALNHFQCLYDETFSDVADLYFEAATALTRAEKYKEAIDFFTPLLSLEEWRTTDVFKPLARCYKEIESYETAKEFYELAIKSEPDDLDIRVSLAEVYYRLNDPETFKHMLVDVVEMRKHQVDETLHRISNE
